Source: patent US20090215878

Test system: ZFP-TF 8982-KRAB
Experiment: cell_activity
Conditions: rat DRG neurons, lentiviral; Nav1.8 mRNA vs GFP control; which of SEQ 2 (GAA) or SEQ 3 (CAA) is the rat site is not stated

GAAGAAGAATGAGAAGATG (double strand) [Nav1.8 target site (GAA variant)]
activity (fold repression): 10
